4 molecules from US20080134370A1, “Novel Altered Gene from Rice Anthranilic Acid Synthase Gene Oasa2 and Use Thereof” (priority 2005, published 2008) can be followed below.

Residue numbers refer to the chain shown, from its start. Numbers in names are those of the source.

Data set [1] relates to rice anthranilate synthase (OASA2 protein). The experiment in a line: Enzyme Activity Measurement 2: anthranilate synthase activity in reaction system using the β subunit of rice anthranilate synthase (glutamine). In kind it is biochemical. Here is the method: (§1) The OASA2 protein synthesized by the wheat embryo acellular system was quantified using rabbit anti-OASA2 antibody that had been prepared based on the peptide fragment with the sequence at position 161 to 175 (MDHEKGKVTEQVVDD) of the amino acid sequence of OASA2 protein. A refined sample of OASA2 protein was also used for the quantification. Western blot analysis was performed according to the method of Towbin et al. (Towbin, H., Staehelin, T. and Gordon, J. 1979. Electrophoretic transfer of proteins from polyacrylamide gels to nitrocellulose sheets: procedure and some applications. Proc Natl Acad Sci USA 76: 4350-4354). The estimated quantity of OASA2 protein was used for the correction of enzyme activity, as will be described later.
(§2) As is known, activity of OASA2 protein is under the feedback inhibition by tryptophan. It is therefore necessary to eliminate tryptophan in the protein synthesis reaction mixture, and replace the environment of the expressed protein with a buffer component for AS activity measurement. To this end, the protein synthesis reaction mixture was replaced with buffer A (50 mM Tris-HCl, pH7.6; 0.05 mM EDTA; 2 mM MgCl2; 0.05 mM DTT; 5% glycerol), using Microspin G-25 columns (Amersham Biosciences)<
Ninety μl of reaction solution (20 mM Tris-HCl, pH 8.3; 5 mM glutamine; 0.2 to 0.8 mM chorismate; 10 mM MgCl2) was supplemented with 2.5 μl of crude extract exchanged with buffer, and the reaction mixture was allowed to react for 1 hour at 32° C. The preparation of rice anthranilate synthase β subunit and quantification of the product by the Western blot method were performed according to the method of Kanno et al. (Kanno et al. (2004) Plant Molecular Biology 54, 11-22) The reaction was stopped by adding 10 μl of 1N HCl, and synthesized anthranilate was extracted with 300 μl of ethyl acetate. The yield of anthranilate was measured with Wallac 1420 ARVOsx-FL (Perkin-Elmer Life Sciences Japan. Co., Ltd.) at the excitation wavelength of 355 nm/fluorescence (emission) 460 nm. […]

For data set [2], the system named is Yeast TRP2 gene defective mutant strains. The experiment in a line: Free tryptophan content in yeast TRP2 gene defective mutant strains expressing OASA2 gene. Type of data set: cell-based. The source says:
Yeasts with a defective TRP2 gene, analogous to OASA2 gene, require tryptophan for growth. It can therefore be said that TRP2 activity is complemented by OASA2 gene if OASA2 gene introduced into the yeast allows for growth without tryptophan. Further, the activity of mutant OASA2 gene can be assayed by causing the yeast to express the mutant OASA2 gene having resistance to tryptophan feedback inhibition and by measuring accumulation of free tryptophan in the organism.
Expression vectors were constructed by performing PCR with the primers below. […] As described above, the N terminus region of the OASA2 protein includes a chloroplast transit signal, and as such the primers were designed to exclude the signal sequence in the product of expression, as in the Split-PCR primers described in Section (2) above. […]
The yeast transformant was separated into single colonies on synthetic complete agar medium (0.67% amino acid-less bactoyeast nitrogen base, uracil-free 0.2% dropout mixture, 2% bactoagar) supplemented with 2% glucose. […] The preparation was then applied to a high-performance liquid chromatography (HPLC) device (the product of Waters, Waters Alliance HPLC FLD System 2695) and free tryptophan content was measured. For HPLC, a Xterra RP18 column (4.6×150 mm) (Waters) was used, and detection of tryptophan was made at the excitation wavelength 278 nm/fluorescence wavelength 348 nm.

The test system of data set [3] is rice anthranilate synthase (OASA2 protein). As to the kind of experiment: Enzyme Activity Measurement 1: anthranilate synthase activity with 100 mM NH4Cl as amide group donating substrate. In kind it is biochemical. The note with it: without tryptophan, FIG. 1 and FIG. 2. Here is the method:
as §1
The OASA2 protein, which is the α subunit of rice anthranilate synthase catalyzes the reaction producing anthranilate from chorismate, using ammonia that originates in the amide group of glutamine supplied by the β subunit.
as §2
Ninety μl of reaction solution (20 mM Tris-HCl, pH 8.3; 100 mM NH4Cl; 0.5 mM chorismate; 10 mM MgCl2) was supplemented with 2.5 μl of crude extract exchanged with buffer, and the reaction mixture was allowed to react for 1 hour at 32° C. The reaction was stopped by adding 10 μl of 1N HCl, and synthesized anthranilate was extracted with 300 μl of ethyl acetate. The yield of anthranilate was measured with Wallac 1420 ARVOsx-FL (Perkin-Elmer Life Sciences Japan. Co., Ltd.) at the excitation wavelength of 355 nm/fluorescence (emission) 460 nm. […]

B1: Wt: wild type rice anthranilate synthase encoded by rice anthranilate synthase gene OASA2 (SEQ ID NO: 1) (protein, listed as Oryza sativa)
chain: MESIAAATFTPSRLAARPATPAAAAAPVRARAAVAAGGRRRTSRRGGVRCSAGKPEASAVINGSAAARAAEEDRRRFFEAAERGSGKGNLVPMWECIVSDHLTPVLAYRCLVPEDNMETPSFLFESVEQGPEGTTNVGRYSMVGAHPVMEVVAKEHKVTIMDHEKGKVTEQVVDDPMQIPRSMMEGWHPQQIDQLPDSFTGGWVGFFSYDTVRYVEKKKLPFSGAPQDDRNLPDVHLGLYDDVLVFDNVEKKVYVIHWVNLDRHATTEDAFQDGKSRLNLLLSKVHNSNVPKLSPGFVKLHTRQFGTPLNKSTMTSDEYKNAVMQAKEHIMAGDIFQIVLSQRFERRTYANPFEVYRALRIVNPSPYMAYVQARGCVLVASSPEILTRVRKGKIINRPLAGTVRRGKTEKEDEMQEQQLLSDEKQCAEHIMLVDLGRNDVGKVSKPGSVKVEKLMNIERYSHVMHISSTVSGELDDHLQSWDALRAALPVGTVSGAPKVKAMELIDELEVTRRGPYSGGLGGISFDGDMLIALALRTIVFSTAPSHNTMYSYKDTERRREWVAHLQAGAGIVADSSPDDEQRECENKAAALARAIDLAESAFVDKE
Regarding B1, in data set [1] (Vmax relative to Wt), the “Relative Ratio (enzyme activity compared with the wild type)” value is recorded as 1.00 fold. The “enzyme activity with tryptophan relative to 100% enzyme activity without tryptophan” value in data set [1] (tryptophan 50 μM, FIG. 3) is “below 10%”. The Vmax in data set [1] (with β subunit, 5 mM glutamine, 0.2 to 0.8 mM chorismate) is given as 215 nmol/min/mg OASA2 Protein. The “Relative Amount” value in data set [2] (free tryptophan relative to yeast expressing Wt OASA2 gene) is 1.0 fold. In addition, the “Free Tryptophan Content” value in data set [2] (yeast transformant, galactose medium without tryptophan, 30° C., 2 days) is 126 ± 7 pmol/mg wet weight.

B2: N351D: mutant OASA2 protein, substitution of asparatate residue for asparagine residue at position 351 (protein, UniProt Q9XJ29 50-606, looked up, variant N351D)
Anthranilate synthase alpha …: CSAGKPEASAVINGSAAARAAEEDRRRFFEAAERGSGKGNLVPMWECIVSDHLTPVLAYRCLVPEDNMETPSFLFESVEQGPEGTTNVGRYSMVGAHPVMEVVAKEHKVTIMDHEKGKVTEQVVDDPMQIPRSMMEGWHPQQIDQLPDSFTGGWVGFFSYDTVRYVEKKKLPFSGAPQDDRNLPDVHLGLYDDVLVFDNVEKKVYVIHWVNLDRHATTEDAFQDGKSRLNLLLSKVHNSNVPKLSPGFVKLHTRQFGTPLNKSTMTSDEYKNAVMQAKEHIMAGDIFQIVLSQRFERRTYADPFEVYRALRIVNPSPYMAYVQARGCVLVASSPEILTRVRKGKIINRPLAGTVRRGKTEKEDEMQEQQLLSDEKQCAEHIMLVDLGRNDVGKVSKPGSVKVEKLMNIERYSHVMHISSTVSGELDDHLQSWDALRAALPVGTVSGAPKVKAMELIDELEVTRRGPYSGGLGGISFDGDMLIALALRTIVFSTAPSHNTMYSYKDTERRREWVAHLQAGAGIVADSSPDDEQRECENKAAALARAIDLAESAFVDKE
For B2, the “enzyme activity (anthranilate yield) compared with wild type” value (from here on “enzyme activity … compared with wild type”) in data set [3] was “improved enzyme activity over the wild type”.

B3: L530D: mutant OASA2 protein, substitution of asparatate residue for leucine residue at position 530 (protein, UniProt Q9XJ29 50-606, looked up, variant L530D)
Anthranilate synthase alpha …: B2 Anthranilate synthase alpha … with D302N, L481D
As to B3, the “enzyme activity … compared with wild type” value in data set [3] is given as “improved enzyme activity over the wild type”.

B4: L530A: mutant OASA2 protein, substitution of alanine residue for leucine residue at position 530 (protein, UniProt Q9XJ29 50-606, looked up, variant L530A)
Anthranilate synthase alpha …: B2 Anthranilate synthase alpha … with D302N, L481A
Turning to B4, the “enzyme activity … compared with wild type” value in data set [3] was “improved enzyme activity over the wild type”.
